Data: patent US20170360875A1 (priority 2014, published 2017)
Values joined by “and” are separate entries in the source; they are usually repeats but may differ in a detail not shown here. Equal values may be shown once.

Biological target: Sudan Ebolavirus, Boniface (Bei Resources NR-31810; sonicated, gamma-irradiated infected Vero E6 cell pellets)

## preformed immune complex of peroxidase-rabbit anti-peroxidase IgG (PAP complex) (from UniProt P00433 31-338)
  OD 405 nm: 1.42 OD 405 nm and 1.29 OD 405 nm and 1.08 OD 405 nm
